Assay results: US6570002 (Johns Hopkins, dated 2003)

Target: T1, Aven (human, UniProt Q9NQS1 1-362)
T1 construct: also called Bif-1
T1 sequence: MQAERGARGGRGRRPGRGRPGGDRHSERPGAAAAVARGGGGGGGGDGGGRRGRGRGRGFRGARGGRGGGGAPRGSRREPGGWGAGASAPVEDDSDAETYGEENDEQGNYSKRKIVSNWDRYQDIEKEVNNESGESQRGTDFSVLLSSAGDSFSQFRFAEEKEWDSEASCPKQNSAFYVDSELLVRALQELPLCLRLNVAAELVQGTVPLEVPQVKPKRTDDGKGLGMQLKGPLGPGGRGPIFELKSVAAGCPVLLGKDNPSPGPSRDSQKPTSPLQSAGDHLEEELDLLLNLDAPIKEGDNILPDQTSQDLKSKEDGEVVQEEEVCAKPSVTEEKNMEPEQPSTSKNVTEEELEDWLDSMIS
Assay: yeast two-hybrid / co-immunoprecipitation (FIG. 6)

B1: Bak (other, UniProt Q16611 1-211, looked up)
chain: MASGQGPGPPRQECGEPALPSASEEQVAQDTEEVFRSYVFYRHQQEQEAEGVAAPADPEMVTLPLQPSSTMGQVGRQLAIIGDDINRRYDSEFQTMLQHLQPTAENAYEYFTKIATSLFESGINWGRVVALLGFGYRLALHVYQHGLTGFLGQVTRFVVDFMLHHCIARWIAQRGGWVAALNLGNGPILNVLVVLGVVLLGQFVVRRFFKS
binding result: no binding
